The format of series [1] is physicochemical. To be noted: pH 7.4. On the procedure:
To a pre-saturated mixture of 500 μL n-octanol and 500 μL of phosphate-buffered saline (PBS) at pH 7.4, 10 μL of 1 μM of ^67Ga-labeled conjugates was added. The solutions were vortexed for 1 h to reach equilibrium and then centrifuged (3000 rpm) for 10 min. From each phase, 100 μL was removed and measured in a γ-counter. The partition coefficient was calculated as the average of the logarithmic values (n = 3) of the ratio between the radioactivity in the organic and the PBS phase.

The target of series [2] is T1, human SST2 (Homo sapiens, UniProt P30874).
T1 construct: expressed in transfected cells; host or cells: HEK293 (HEK-SST2)
Kind of series: Competition binding assay on HEK-SST2 cells with ^125I-labeled SS-14. To be noted: read-out: SST2 IC50, nM (95% CI), ^125I-SS-14 radioligand, 3 to 5 sessions in duplicate. On the procedure: (§1) Human Embryonic Kidney (HEK293) cells (a kind gift from Dr. A. Mühlethaler-Mottet, Pediatric Hematology-Oncology Unit, Lausanne University Hospital, Switzerland) were stably transfected with plasmids encoding the human SST2 and SST5 (HEK-SST2 and HEK-SST5) and cultivated as previously described. Non-transfected HEK cells were used as a negative control.
(§2) Binding assays were performed as described previously.

Series [3] addresses T2, human SST5 (Homo sapiens, UniProt P35346).
T2 construct: expressed in transfected cells; host or cells: HEK293 (HEK-SST5)
Kind of series: cAMP accumulation experiments on HEK-SST5 cells (agonistic potency). It is filed as cell-based. The following applies: read-out: SST5 EC50, nM (95% CI), 3 to 4 sessions in duplicate. In general terms: Cyclic AMP is a second messenger, typically raised through Gs and lowered through Gi signalling.
Procedure: (§3) Human Embryonic Kidney (HEK293) cells (a kind gift from Dr. A. Mühlethaler-Mottet, Pediatric Hematology-Oncology Unit, Lausanne University Hospital, Switzerland) were stably transfected with plasmids encoding the human SST2 and SST5 (HEK-SST2 and HEK-SST5) and cultivated as previously described [25]. Non-transfected HEK cells were used as a negative control.
(§4) cAMP accumulation experiments on HEK-SST2 and HEK-SST5 cells were performed with cAMP direct immunoassay kit (colorimetric, K371, BioVision) as described previously [25].

In series [4] the target is T2, human SST5. Nature of the series: Competition binding assay on HEK-SST5 cells with ^125I-labeled SS-14. To be noted: read-out: SST5 IC50, nM (95% CI), ^125I-SS-14 radioligand, 3 to 5 sessions in duplicate. As for the experimental part: as §1, §2
The target of series [5] is T1, human SST2. Nature of the series: cAMP accumulation experiments on HEK-SST2 cells (agonistic potency). The class given is cell-based. To be noted: for EC50: read-out: SST2 EC50, nM (95% CI), cAMP, HEK-SST2 cells, 3 to 4 sessions in duplicate.
Procedure: as §3, §4
For another series, the system named is SST2. Also noted: method as in PMID 10774879. The following applies: cited from earlier work.
Series [6] relates to SST5. Also noted: method as in PMID 10774879. To be noted: cited from earlier work.
A short description of series [7]: in vivo. The following applies: female, mouse, 100 pmol, total radioactivity.
A short description of series [8]: in vivo. To be noted: female, mouse, 100 pmol, total radioactivity. The source holds these as a separate data set.
The conditions of series [9]: in vivo; cited from earlier work.
Series [10] deals with SST5. The arrangement: method as in PMID 25918675. To be noted: cited from earlier work.
Setting [11] is: athymic Nude-Foxn1^nu/Foxn1^+, Adrenal uptake.
Where [12] appears, read: athymic Nude-Foxn1^nu/Foxn1^+, Blood uptake.
Where [13] appears, read: athymic Nude-Foxn1^nu/Foxn1^+, Femur uptake.
[14] abbreviates: athymic Nude-Foxn1^nu/Foxn1^+, Heart uptake.
The mark [15] stands for this setting: athymic Nude-Foxn1^nu/Foxn1^+, Intestine uptake.
Where [16] appears, read: athymic Nude-Foxn1^nu/Foxn1^+, Kidney uptake.
The mark [17] stands for this setting: athymic Nude-Foxn1^nu/Foxn1^+, Lung uptake.
[18] abbreviates: athymic Nude-Foxn1^nu/Foxn1^+, Muscle uptake.
Setting [19] is: athymic Nude-Foxn1^nu/Foxn1^+, Pancreas uptake.
[20] abbreviates: athymic Nude-Foxn1^nu/Foxn1^+, Pituitary uptake.
Where [21] appears, read: athymic Nude-Foxn1^nu/Foxn1^+, SST2 tumor uptake.
Setting [22] is: athymic Nude-Foxn1^nu/Foxn1^+, SST5 tumor uptake.
[23] abbreviates: athymic Nude-Foxn1^nu/Foxn1^+, Stomach uptake.
[24] abbreviates: athymic Nude-Foxn1nu/Foxn1+, Spleen uptake.
[25] abbreviates: athymic Nude-Foxn1^nu/Foxn1^+, Liver uptake.
Where [26] appears, read: athymic Nude-Foxn1nu/Foxn1+, Pancreas uptake.

Like-named read-outs stand apart in the source and are kept apart here.

One may read the IC50 as the concentration needed to halve the response being measured. One may read the EC50 as the midpoint of the concentration-response curve. A word on the tissue uptake: it is the percentage of the injected dose found per gram of tissue.

T2 sequence (P35346 whole entry): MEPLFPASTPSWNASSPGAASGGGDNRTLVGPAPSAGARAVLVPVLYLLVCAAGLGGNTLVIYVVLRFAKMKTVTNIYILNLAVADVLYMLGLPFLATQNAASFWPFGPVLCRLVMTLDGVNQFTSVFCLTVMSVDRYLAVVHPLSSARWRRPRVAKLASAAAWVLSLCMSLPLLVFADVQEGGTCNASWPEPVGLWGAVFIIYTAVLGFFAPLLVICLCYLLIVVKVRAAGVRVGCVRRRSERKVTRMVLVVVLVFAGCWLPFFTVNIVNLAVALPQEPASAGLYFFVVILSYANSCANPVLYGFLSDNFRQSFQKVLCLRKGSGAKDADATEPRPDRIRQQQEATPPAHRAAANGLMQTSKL
T1 sequence (P30874 whole entry): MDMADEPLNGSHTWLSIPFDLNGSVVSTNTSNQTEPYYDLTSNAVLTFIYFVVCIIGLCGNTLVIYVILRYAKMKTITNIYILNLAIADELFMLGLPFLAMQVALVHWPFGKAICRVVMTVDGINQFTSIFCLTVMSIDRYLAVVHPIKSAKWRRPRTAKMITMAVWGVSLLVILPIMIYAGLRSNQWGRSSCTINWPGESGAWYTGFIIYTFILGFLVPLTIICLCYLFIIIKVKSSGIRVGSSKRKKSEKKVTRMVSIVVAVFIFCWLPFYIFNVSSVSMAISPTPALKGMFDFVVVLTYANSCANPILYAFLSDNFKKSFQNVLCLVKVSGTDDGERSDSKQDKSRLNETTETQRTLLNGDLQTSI

`C[C@@H](O)[C@@H]1NC(=O)[C@H](CCCCN)NC(=O)[C@@H](Cc2c[nH]c3ccccc23)NC(=O)[C@H](Cc2cccc3ccccc23)NC(=O)[C@@H](NC(=O)[C@@H](Cc2ccccc2)NC(=O)CN2CCN(CC(=O)O)CCN(CC(=O)O)CCN(CC(=O)O)CC2)CSSC[C@@H](C(=O)N[C@H](CO)[C@@H](C)O)NC1=O` [[^67Ga]Ga-DOTA-NOC, metal not drawn]: the “log D” value in [1] is “− 1.6 ± 0.1”.

As for `C[C@@H](O)[C@@H]1NC(=O)[C@H](CCCCN)NC(=O)[C@@H](Cc2c[nH]c3ccccc23)NC(=O)[C@H](Cc2cccc3ccccc23)NC(=O)[C@@H](NC(=O)[C@@H](Cc2ccccc2)NC(=O)CN2CCN(CC(=O)O)CCN(CC(=O)O)CCN(CC(=O)O)CC2)CSSC[C@@H](C(=O)N[C@H](CO)[C@@H](C)O)NC1=O` [^natGa-DOTA-NOC, metal not drawn, reference compound], the IC50 at human SST2 [2] was 0.7 nM; at human SST5 [4], 3.4 nM. The EC50 on human SST5 [3] was 3.3 nM; at human SST2 [5], 0.59 nM.

As for “[^68Ga][Ga-1,4,7,10-tetraazacyclododecane-1,4,7,10-tetraacetic acid^0,Tyr^3]-octreotide [[^68Ga]Ga-DOTA-TOC]”, the IC50 in the series on SST2 is 2.5 ± 0.5 nM; in the series with SST5 [6], 73 ± 21 nM.

On to `C[C@@H](O)[C@@H]1NC(=O)[C@H](CCCCN)NC(=O)[C@@H](Cc2c[nH]c3ccccc23)NC(=O)[C@H](Cc2cccc3ccccc23)NC(=O)[C@@H](NC(=O)[C@@H](Cc2ccccc2)NC(=O)CN2CCN(CC(=O)O)CCN(CC(=O)O)CCN(CC(=O)O)CC2)CSSC[C@@H](C(=O)N[C@H](CO)[C@@H](C)O)NC1=O` [[^68Ga]Ga-DOTA-NOC, [^68Ga][Ga-DOTA^0,1-Nal^3]-octreotide, metal not drawn, reference compound], for which the tissue uptake at 1 h was 4.6 ± 1 %ID/g in “in vivo [7]” (setting [11]); 1.1 ± 0.4 %ID/g in the series “in vivo [7]” (setting [12]); 1.7 ± 0.8 %ID/g in the series “in vivo [7]” (setting [13]); 0.7 ± 0.2 %ID/g in “in vivo [7]” (setting [14]); 3.3 ± 0.7 %ID/g in the series “in vivo [7]” (setting [15]); 9.8 ± 3.2 %ID/g in “in vivo [7]” (setting [16]). Besides, the tissue uptake at 1 h came out at 3.3 ± 1.4 %ID/g in the series “in vivo [7]” (setting [17]); 0.5 ± 0.2 %ID/g in “in vivo [7]” (setting [18]); 16 ± 3 %ID/g in “in vivo [7]” (setting [19]); 8.2 ± 2.8 %ID/g in the series “in vivo [7]” (setting [20]); 30 ± 8 %ID/g in the series “in vivo [7]” (setting [21]); 12 ± 5 %ID/g in “in vivo [7]” (setting [22]). Also, the tissue uptake at 1 h in the series “in vivo [7]” (setting [23]) is 12 ± 2 %ID/g; in “in vivo [7]” (setting [24]), 0.8 ± 0.2 %ID/g.

As to `CC(C)[C@@H]1NC(=O)[C@H](CCCCN)NC(=O)[C@@H](Cc2c[nH]c3ccccc23)NC(=O)[C@H](Cc2ccc(O)cc2)NC(=O)[C@@H](NC(=O)[C@@H](Cc2ccc(N)cc2)NC(=O)CN2CCN(CC(=O)O)CCN(CC(=O)O)CCN(CC(=O)O)CC2)CSSC[C@@H](C(=O)N[C@H](C(N)=O)[C@@H](C)O)NC1=O` [^natGa-DOTA-ST8951, metal not drawn], the IC50 at human SST2 [2] turned out to be 7.5 nM. For the same molecule, the EC50 at human SST2 [5] is 9.8 nM.

On to `CC(C)[C@@H]1NC(=O)[C@H](CCCCN)NC(=O)[C@@H](Cc2c[nH]c3ccccc23)NC(=O)[C@H](Cc2ccc(O)c(I)c2)NC(=O)[C@@H](NC(=O)[C@@H](Cc2ccc(N)c(I)c2)NC(=O)CN2CCN(CC(=O)O)CCN(CC(=O)O)CCN(CC(=O)O)CC2)CSSC[C@@H](C(=O)N[C@H](C(N)=O)[C@@H](C)O)NC1=O` [^natGa-DOTA-ST8950, metal not drawn], for which, on human SST2 [2], the IC50 amounted to 0.32 nM. For the same molecule, the “Factor of reduction of agonistic potency for SST2 vs ST8950” value at human SST2 [5] (after ^natGa-DOTA conjugation) is 1.6. Further, the concentration giving a half-maximal response (EC50) at human SST2 [5] worked out at 0.46 nM.

As to `CC(C)[C@@H]1NC(=O)[C@H](CCCCN)NC(=O)[C@@H](Cc2c[nH]c3ccccc23)NC(=O)[C@H](Cc2ccc(O)c(I)c2)NC(=O)[C@@H](NC(=O)[C@@H](Cc2ccc(N)c(I)c2)NC(=O)CN2CCN(CC(=O)O)CCN(CC(=O)O)CCN(CC(=O)O)CC2)CSSC[C@@H](C(=O)N[C@H](C(N)=O)[C@@H](C)O)NC1=O` [[^68Ga]Ga-DOTA-ST8950, metal not drawn], the tissue uptake at 2 h in the series “in vivo [7]” (setting [11]) is 4.3 ± 1 %ID/g; in the series “in vivo [7]” (setting [12]) it was 0.8 ± 0.2 %ID/g; in the series “in vivo [7]” (setting [13]) it was 2.4 ± 0.8 %ID/g; in “in vivo [7]” (setting [14]) it was 0.8 ± 0.2 %ID/g; in “in vivo [7]” (setting [15]) it was 2.7 ± 0.3 %ID/g; in “in vivo [7]” (setting [16]), 14 ± 2 %ID/g. The tissue uptake at 2 h in the series “in vivo [7]” (setting [25]) was found to be 7.3 ± 1.5 %ID/g; in the series “in vivo [7]” (setting [17]), 3.5 ± 0.7 %ID/g; in the series “in vivo [7]” (setting [18]), 0.6 ± 0.1 %ID/g; in “in vivo [7]” (setting [20]) it was 7.8 ± 1.2 %ID/g; in “in vivo [7]” (setting [21]) it was 32 ± 7 %ID/g; in the series “in vivo [7]” (setting [22]), 14 ± 3 %ID/g. Moreover, the results for the tissue uptake at 2 h in the series “in vivo [7]” (setting [23]), in “in vivo [7]” (setting [26]) and in the series “in vivo [7]” (setting [24]) were 8.4 ± 1.2 %ID/g, 8.6 ± 2.1 %ID/g and 1.5 ± 0.3 %ID/g, respectively. For the same molecule, the tissue uptake at 1 h in the series “in vivo [7]” (setting [15]) was 2.4 ± 1.3 %ID/g; in “in vivo [7]” (setting [25]), 6.4 ± 1.9 %ID/g; in the series “in vivo [7]” (setting [19]), 8.5 ± 4.5 %ID/g; in the series “in vivo [7]” (setting [20]), 8.5 ± 1.9 %ID/g; in “in vivo [7]” (setting [21]), 26 ± 8 %ID/g; in “in vivo [7]” (setting [22]), 15 ± 6 %ID/g. The tissue uptake at 1 h in the series “in vivo [8]” (setting [15]) came to 2.5 ± 0.2 %ID/g; in the series “in vivo [8]” (setting [25]), 6.2 ± 0.6 %ID/g; in “in vivo [8]” (athymic Nude-Foxn1^nu/Foxn1^+, SST(-) tumor uptake), 1.4 ± 0.5 %ID/g; in the series “in vivo [8]” (setting [26]) it was 7.4 ± 1.9 %ID/g.

`CC(C)[C@@H]1NC(=O)[C@H](CCCCN)NC(=O)[C@@H](Cc2c[nH]c3ccccc23)NC(=O)[C@H](Cc2ccc(O)c(I)c2)NC(=O)[C@@H](NC(=O)[C@@H](Cc2ccc(N)c(I)c2)NC(=O)CN2CCN(CC(=O)O)CCN(CC(=O)O)CCN(CC(=O)O)CC2)CSSC[C@@H](C(=O)N[C@H](C(N)=O)[C@@H](C)O)NC1=O` [[^67Ga]Ga-DOTA-ST8950, metal not drawn]: the “log D” value in series [1] is listed as “− 1.0 ± 0.1”.

In the case of “[^68Ga][Ga-DOTA^0,Tyr^3,Thr^8]-octreotate [[^68Ga]Ga-DOTA-TATE]”, the IC50 with SST2 is 0.2 ± 0.04 nM. In addition, in series [9], the Blood values is reported as 0.4 ± 0.0 %IA/g and the Liver uptake was 0.4 ± 0.2 %IA/g.

In the case of `C[C@@H](O)[C@H](NC(=O)[C@@H]1CSSC[C@H](NC(=O)[C@@H](Cc2ccccc2)NC(=O)CN2CCN(CC(=O)O)CCN(CC(=O)O)CCN(CC(=O)O)CC2)C(=O)N[C@@H](Cc2ccc(O)cc2)C(=O)N[C@H](Cc2c[nH]c3ccccc23)C(=O)N[C@@H](CCCCN)C(=O)N[C@@H]([C@@H](C)O)C(=O)N1)C(=O)O` [^natGa-DOTA-TATE, metal not drawn], the IC50 in the series on SST5 [10] is over 1000 nM. The EC50 on human SST5 [3] came out at 39 nM.

As for `C[C@@H](O)[C@H](NC(=O)[C@@H]1CSSC[C@H](NC(=O)[C@@H](Cc2ccccc2)NC(=O)CN2CCN(CC(=O)O)CCN(CC(=O)O)CCN(CC(=O)O)CC2)C(=O)N[C@@H](Cc2ccc(O)cc2)C(=O)N[C@H](Cc2c[nH]c3ccccc23)C(=O)N[C@@H](CCCCN)C(=O)N[C@@H]([C@@H](C)O)C(=O)N1)C(=O)O` [[^67Ga]Ga-DOTA-TATE, metal not drawn], in [1], the “log D” value was “− 3.0 ± 0.1”.
